Here are results for 5 molecules from patent publication US9688764B2, “Methods of treating breast cancer by administering anti-human prolactin receptor (PRLR) antibodies” (REGENERON PHARMACEUTICALS, INC., priority 2013, dated 2017).

Assay [1] concerns MCF7/hPRLR (MCF7/PRLR) cells. Put plainly: Cell viability (cell kill) assay, nuclear counts. The format is cell-based, human. From the text: (§1) PRLR-overexpressing cells, including HEK293, PC3, MCF7 and NCI-N87, were generated to assess the ability of anti-PRLR conjugated antibodies to reduce cell viability. For comparative purposes, PC3 and T47D cells with overexpressed ErbB2 were also generated, as well as an MCF7 cell line over-expressing both hPRLR and hErbB2. Briefly, Lipofectamine® 2000-mediated transfection methodology was utilized to generate HEK293 cells expressing human PRLR (HEK293/hPRLR) or human ErbB2 (HEK293/hErbB2). Lipofectamine LTX with Plus Reagent was used to generate PC3 cells expressing human PRLR (PC3/hPRLR) or human ErbB2 (PC3/hErbB2). Lentiviral-mediated transduction was utilized to generate MCF7 cells expressing human PRLR (MCF7/hPRLR), NCI-N87 cells expressing human PRLR (NCI-N87/hPRLR), T47D cells over-expressing human ErbB2 (T47D/hErbB2), and MCF7 cells expressing both human PRLR and human ErbB2 (MCF7/hPRLR/hErbB2). All lines were selected for at least two weeks in complete growth media plus appropriate selection reagents. Stably expressing populations were enriched for PRLR expression via FACS using the anti PRLR antibody Control I.
(§2) Next, the ability of anti-PRLR-DM1 antibody-drug conjugates (i.e., anti-PRLR antibodies conjugated to DM1 via a non-cleavable linker [SMCC]) to reduce cell viability was determined using in vitro cell based assays. Cells were seeded in PDL-coated 96 well plates at 1500 to 10000 cells per well in complete growth media and allowed to grow overnight. For cell viability curves, ADCs or free DM1 (as the methyl disulfide derivative DM1-SMe) were added to the cells at final concentrations ranging from 500 nM to 5 pM and incubated for 3 days. The 293, PC3 and T47D cells were incubated with CCK8 (Dojindo, Rockville, Md.) for the final 1-3 hours and the absorbance at 450 nm (OD450) was determined on a Flexstation3 (Molecular Devices, Sunnyvale, Calif.). MCF7 cells were treated with Hoechst 33342 nuclear stain while being fixed with 4% formaldehyde. Images were acquired on the ImageXpress micro XL (Molecular Devices, Sunnyvale, Calif.) and nuclear counts were determined via Columbus image analysis software (Perkin Elmer, Shelton, Conn.). Background OD450 values (PC3, 293, and T47D) or nuclear counts (MCF7) from digitonin (40 nM) treated cells was subtracted from all wells and viability was expressed as a percentage of the untreated controls. IC50 values were determined from a four-parameter logistic equation over a 10-point response curve (GraphPad Prism).
(§3) Finally, the potency of anti-PRLR antibodies conjugated to DM1 via the non-cleavable linker SMCC was compared to the cell killing potency of anti-PRLR antibodies conjugated to MMAE via the cleavable linker: mc-vc-PAB (available from Concortis, San Diego, Calif.). Cells used in this experiment were PC3, PC3/hPRLR, MCF7/ATCC and MCF7/PRLR.
(§4) Additional toxins (DM4, MeNHC3-May, and MMD) conjugated to anti-PRLR antibodies were also tested in T47D and MCF7/hPRLR cell lines, and results are summarized in Tables 19 (293 and T47D cell killing) and 20 (MCF7/ATCC and MCF7/PRLR cell killing). (ND=not detected).

The next assay concerns MCF7 (MCF7/ATCC) cells. The assay is described as follows: Cell viability (cell kill) assay, nuclear counts. The format is cell-based. To be noted: MCF7/ATCC.
Text: as §1, §2, §3, §4

A further assay has as its system T47D cells. Put plainly: Cell viability (cell kill) assay. It is filed as cell-based. The settings on record: T47D; for IC50: read-out: IC50. Here is the method:
as §2
Additionally, the impact of the PRLR ligand, PRL, on PRLR-SMCC-DM1 cell kill in T47D cells was assessed. T47D cells were incubated simultaneously with PRL (15 nM) and either a non-blocking anti PRLR antibody (H1H6782P) or a receptor blocking antibody (H1H6958N2).
as §4

The test system of the next assay is HEK293 (293) cells. The assay is described as follows: Cell viability (cell kill) assay. The format is cell-based.
Text: as §1, §2

The test system of the next assay is PC3/hPRLR cells. Put plainly: Cell viability (cell kill) assay. It is filed as cell-based, human. The settings on record: PC3/hPRLR; Table 18.
Text: as §1, §2, §3

Changes are numbered by the printed parent chain. Where two headings read alike, the source gives them in different places.

By IC50 is commonly meant the point on the concentration scale where inhibition reaches its midpoint. For the molecule `COc1cc2cc(c1Cl)N(C)C(=O)CC(OC(=O)C(C)N(C)C(=O)CCSSC)C1(C)OC1C(C)C1CC(O)(NC(=O)O1)C(OC)C=CC=C(C)C2` (centres unmarked) [Free DM1 (Me-SS-May)], the “% Kill” value in assay [1] (Table 20) is reported as 80%; with MCF7 (MCF7/ATCC) cells (Table 20), 80%; with T47D cells (Table 19) it was 100%; in the assay with HEK293 (293) cells (293, Table 19), 95%. The IC50 in assay [1] (Table 20) stood at 0.8 nM; in the assay on MCF7 (MCF7/ATCC) cells (Table 20), 1.3 nM; in the assay with T47D cells (Table 19), 1.5 nM; in the assay with HEK293 (293) cells (293, Table 19) it was 1.2 nM.

B1: H1H6953N-mc-VC-PAB-MMAE (conjugate)
VH: EVQLLESGGGLVQPGGTLRLSCAASGFTFSAYAMSWVRQAPGKGLEWVSSINVRAGDTYYADSVKGRFTISRDNSKNTLFLLMNSLRAEDTAAYYCAKARYSSNWGFDFWGQGTLVTVSS
VL: DIVMTQSPDSLTVSLGARTTINCQSSQTILHSSNNHNYLAWYQQKPGLPPKLLIYWSSTRESGVPDRFSGSGSGTDFTLTISSLQAEDVAIYYCQQYSNTPYTFGQGTKLEIN
B1: the “% Kill” value worked out at 85% in assay [1] (Table 18); 85% in assay [1] (Table 20); 42% with MCF7 (MCF7/ATCC) cells (Table 18); 40% in the assay with MCF7 (MCF7/ATCC) cells (Table 20); 80% in the assay with T47D cells (Table 19); 80% in the assay with PC3/hPRLR cells. Further, the IC50 in assay [1] (Table 18) came to 0.1 nM; in assay [1] (Table 20), 0.1 nM; with MCF7 (MCF7/ATCC) cells (Table 18), 150 nM; with MCF7 (MCF7/ATCC) cells (Table 20), 150 nM; in the assay with T47D cells (Table 19) it was 1 nM; in the assay on PC3/hPRLR cells it was 0.2 nM.

B2: H1H6953N-mc-VC-PAB-MeNHC3-May (conjugate)
VH: B1 VH
VL: B1 VL
For B2, the “% Kill” value in assay [1] (Table 20) was 80%; in the assay with MCF7 (MCF7/ATCC) cells (Table 20), 60%; in the assay with T47D cells (Table 19), 90%. The IC50 in assay [1] (Table 20) stood at 0.2 nM; with MCF7 (MCF7/ATCC) cells (Table 20), 150 nM; in the assay on T47D cells (Table 19), 1 nM.

B3: H1H6782P-SMCC-DM1 (conjugate)
VH: EVQLVESGGGLVQPGRSLRLSCAASGFTFDDYAMHWVRQAPGKGLEWVSGIIWNSGHIGYGDSVKGRFTISRDNAKKSLYLQMNSLRAEDTALYYCARDSGRYQSYFDYWGQGTLVTVSS
VL: DIQMTQSPSTLSASVGDRVTITCRASHIISSWLAWYQQKPGKAPKVLIFKASSLESGVPSRFSGSGSGTEFTLTISSLQPDDFATYYCQQYNTYSRTFGQGTKVEIK
Turning to B3, the “% Kill” value in assay [1] (Table 20) was 80%; in the assay on MCF7 (MCF7/ATCC) cells (Table 20), 70%; with T47D cells (Table 19), 100%; with HEK293 (293) cells (293, Table 19), 80%. The IC50 in assay [1] (Table 20) worked out at 0.3 nM; with MCF7 (MCF7/ATCC) cells (Table 20), 250 nM; in the assay on T47D cells (Table 13, + 15 nM PRL) it was 2 nM; in the assay with T47D cells (Table 13, without PRL), 1 nM; with T47D cells (Table 19), 3 nM; in the assay with HEK293 (293) cells (293, Table 19) it was 120 nM. The IC50 in the assay with HEK293 (293) cells (HEK293, Table 13, + 15 nM PRL) stood at 70 nM; with HEK293 (293) cells (HEK293, Table 13, without PRL), 90 nM.

B4: H1H6958N2-SPDB-DM4 (conjugate)
VH: QVQLVESGGGVVQPGRSLRLSCGASGFTFRNYGMQWVRQGPGKGLEWVTLISFDGNDKYYADSVKGRFTISRDNSKNTLFLQMNSLRTEDTAVYYCARGGDFDYWGQGTLVTVSS
VL: DIQMTQSPSSLSASVGDRVTITCRASQDIRKDLGWYQQKPGKAPKRLIYAASSLHSGVPSRFSGSGSGTEFTLTISSLQPEDFATYYCLQHNSYPMYTFGQGTKLEIK
With B4, the results for the “% Kill” value (in assay [1] (Table 20); in the assay on MCF7 (MCF7/ATCC) cells (Table 20); in the assay with T47D cells (Table 19)) were 90%, 80% and 100%, respectively. Also, the IC50 was determined as 0.8 nM in assay [1] (Table 20), 25 nM in the assay on MCF7 (MCF7/ATCC) cells (Table 20) and 1 nM in the assay on T47D cells (Table 19).
